Results on 1 substance are retold here after paper PMC12368178.

The assay addresses 16055 DG4 NFL trimer (HIV-1 (Indian subtype C 16055 strain)). As to the kind of experiment: SEC + native gel or EMSA.

“And” between values parts separate entries of the source, which are not always exact repeats. Equal values may be shown once.

Take 16055 DG4 NFL trimer: the stoichiometry N is 3 and 6.
